The source of these data is PMC2670261, “Characterization of the interaction between Actinin-Associated LIM Protein (ALP) and the rod domain of α-actinin” (BMC Cell Biology, 2009).

Changes are numbered by the printed parent chain.

For data set [1], the target named is ALP107-273 (internal region fragment of actinin-associated LIM protein, residues 107-273) (human). The data set can be described thus: SPR; Biacore 3000; ALP107-273 or peptide 3 immobilised by amine coupling on CM5; R1-R4 or R2-R3 as soluble analyte; 20 mM Tris pH 7.4, 150 mM NaCl, 0.005% P20; apparent Kd.
Data set [2] deals with α-actinin 2 rod domain, spectrin repeats 1-4 (R1-R4) (human) (UniProt P35609). The data set can be described thus: SPR; Biacore 3000; α-actinin rod fragment (R1-R4 or R2-R3) immobilised by amine coupling on CM5; ALP107-273 or ALP peptides as soluble analyte; 20 mM Tris pH 7.4, 150 mM NaCl, 0.005% P20; apparent Kd. (Surface plasmon resonance follows binding to a sensor surface in real time, without labels.)

Data set [3] concerns the target T1, α-actinin rod domain, spectrin repeats 1–4 (R1-R4) of human α-actinin 2 (Homo sapiens, UniProt P35609).
T1 construct: Rod fragments containing spectrin repeats 1–4 (residues 274–746); His-tag (cleaved yes); made in house; host or cells: Escherichia coli BL21(DE3)
Kind of data set: SPR interaction with α-actinin rod R1-R4. The data set is classed as binding. The settings on record: for Kd: SPR, 20 mM Tris pH 7.4, 150 mM NaCl, 0.005% P20. The text has this: (§1) Internal fragments of human ALP (AF039018) and chicken ALP (AJ249218) were cloned into a modified pET24d vector (Novagen, Merck Biosciences, Schwalbach, Germany) as described earlier using BsmBI (NcoI)- NotI cloning sites. Rod fragments containing spectrin repeats 1–4 (residues 274–746) or repeats 2 and 3 (residues 371–637) of human α-actinin 2 have been described previously. A YFP-fusion of ALP107-273 was generated in a pEYFP-C1 vector (Clontech, BD Biosciences) at an EcoRI-BamHI restriction site. The deletion constructs of pEYFP-ALP107-273 were generated by PCR. The α-Actinin-CFP construct is described elsewhere. All constructs were verified by DNA sequencing.
(§2) ALP internal fragments and an α-actinin rod containing the spectrin repeats 1–4 (R1-R4) and a fragment containing spectrin repeats 2 and 3 (R2-R3) were expressed at +37°C for 3–4 h in Escherichia coli BL21(DE3) strain as previously described. Briefly, proteins were purified using nickel nitrilotriacetic acid-agarose (Qiagen) as a first step. The His-tag was removed by tobacco etch virus protease (Invitrogen). For further purification, size exclusion chromatography (Superdex 75 16/60 and 26/60 columns, Amersham Biosciences) for ALP, and ion exchange (ProteinPakQ 8HR columns, Waters) for α-actinin fragments were used. The molecular weight standards for the gel filtration were obtained from Bio-Rad Laboratories. For NMR analysis, ^15N-labelled ALP107-273 and ^15N^13C-labelled ALP107-273 were produced in general M9-media with supplements. Expression was induced with 1 mM isopropyl-1-thio-β-D-galactopyranoside (IPTG) at +37°C for 8 hrs in E. coli BL21(DE3) strain. Low molecular weight markers used in SDS-polyacrylamide electrophoresis were obtained from Amersham Biosciences. Five ALP peptides were purchased from EZBiolab Inc. (Westfield, IN, USA).
A Biacore 3000 system (Biacore, Uppsala, Sweden) was used for surface plasmon resonance (SPR) analysis. Ligand immobilization was performed via amine coupling to gold sensor chips (CM5). […]

Data set [4] deals with T2, α-actinin spectrin repeats 2–3 (R2-R3) of human α-actinin 2 (Homo sapiens, UniProt P35609).
T2 construct: repeats 2 and 3 (residues 371–637) of human α-actinin 2; His-tag (cleaved yes); made in house; host or cells: Escherichia coli BL21(DE3)
The data set can be described thus: SPR interaction with α-actinin R2-R3. The settings on record: Biacore 3000, R2-R3 immobilized, ALP107-273 as analyte. The data set is classed as binding.
Text: as §1
ALP internal fragments and an α-actinin rod containing the spectrin repeats 1–4 (R1-R4) and a fragment containing spectrin repeats 2 and 3 (R2-R3) were expressed at +37°C for 3–4 h in Escherichia coli BL21(DE3) strain as previously described. Briefly, proteins were purified using nickel nitrilotriacetic acid-agarose (Qiagen) as a first step. The His-tag was removed by tobacco etch virus protease (Invitrogen). For further purification, size exclusion chromatography (Superdex 75 16/60 and 26/60 columns, Amersham Biosciences) for ALP, and ion exchange (ProteinPakQ 8HR columns, Waters) for α-actinin fragments were used. The molecular weight standards for the gel filtration were obtained from Bio-Rad Laboratories. […]

For data set [5], the system named is U2OS cells, α-actinin in actin stress fibres. The data set can be described thus: Live cell localization of YFP fusion with α-actinin-CFP. It is filed as cell-based, human. The settings on record: YFP fusion expressed with α-actinin-CFP in living U2OS cells.
Text: as §1
Human osteosarcoma (U2OS) cells were maintained in Dulbecco's modified Eagle's medium (DMEM) supplemented with 10% fetal bovine serum (Hyclone), 2 mM L-glutamine, penicillin and streptomycin (Sigma-Aldrich). Transfected cells were re-plated on fibronectin (10 μg/ml) coated glass bottom dishes (MatTek). General growth medium was used as imaging medium. The time lapse images were acquired with an IX-71 inverted microscope (Olympus) equipped with a Polychrome IV monochromator (TILL Photonics) with the appropriate filters, an Andor iXon (Andor) camera, a heated sample environment (+37°C) and CO2-control. A PLAPON 60xO TIRFM 60x/1,45 (oil) objective (Olympus) was used. […]

The nature of data set [6]: Concentration reached after purification. The data set is classed as physicochemical. The settings on record: purified protein fragment. On the procedure:
as §2

In a further data set the test system is CHO cells, stress fibres. Kind of data set: Localization of YFP-ALP107-273 mutants at stress fibres. The settings on record: YFP fused to ALP107-273 with deletions or mutations; CHO cells 24 h after transfection, 4 h on fibronectin; blinded scoring. It is filed as cell-based.
Text: as §1
The pEYFP ALP107-273 and mutants were transfected into CHO cells as described previously. Following 24 hrs transfection, the cells were seeded for 4 hrs on coverslips coated with 10 μg/ml human plasma fibronectin (Sigma) and fixed with 4% paraformaldehyde in 140 mM NaCl, 10 mM Na-Phosphate pH 7.4. The coverslips were coded and the number of cells with YFP localization at stress fibres was counted by two observers who were blinded to the identity of the samples. At least 100 cells were scored from each coverslip, four coverslips were used per transfection, and the experiment was repeated at least three times.

In data set [7] the target is T3, α-actinin 2 rod domain, spectrin repeats 1-4 (R1-R4) (human, UniProt P35609 274-746).
T3 construct: α-actinin 2, human, spectrin repeats 1-4, residues 274-746; also called α-actinin rod; α-actinin rod region; source: E. coli BL21(DE3), purified (Ni-NTA, TEV removal of the His-tag, ion exchange)
Kind of data set: SPR; Biacore 3000; ALP107-273 or peptide 3 immobilised by amine coupling on CM5; R1-R4 or R2-R3 as soluble analyte; 20 mM Tris pH 7.4, 150 mM NaCl, 0.005% P20; apparent Kd. The settings on record: both partners purified.

T1 sequence (P35609 274-746): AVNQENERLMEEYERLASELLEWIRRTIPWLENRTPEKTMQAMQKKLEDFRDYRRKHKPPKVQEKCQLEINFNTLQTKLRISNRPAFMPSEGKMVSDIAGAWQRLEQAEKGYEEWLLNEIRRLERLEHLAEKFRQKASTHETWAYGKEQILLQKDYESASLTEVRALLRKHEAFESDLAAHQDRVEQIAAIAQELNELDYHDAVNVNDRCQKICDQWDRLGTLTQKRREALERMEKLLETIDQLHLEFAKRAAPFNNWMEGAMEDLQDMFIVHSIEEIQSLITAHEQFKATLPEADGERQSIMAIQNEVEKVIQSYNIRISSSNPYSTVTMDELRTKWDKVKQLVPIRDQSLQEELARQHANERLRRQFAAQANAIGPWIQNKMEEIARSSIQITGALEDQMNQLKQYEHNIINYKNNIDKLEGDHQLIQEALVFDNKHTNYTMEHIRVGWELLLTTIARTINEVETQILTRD
Chain of α-actinin 2 rod domain, spectrin repeats 1-4 (R1-R4) (human) (P35609 274-746): as above
T3 sequence (P35609 274-746): as above
T2 sequence (P35609 371-637): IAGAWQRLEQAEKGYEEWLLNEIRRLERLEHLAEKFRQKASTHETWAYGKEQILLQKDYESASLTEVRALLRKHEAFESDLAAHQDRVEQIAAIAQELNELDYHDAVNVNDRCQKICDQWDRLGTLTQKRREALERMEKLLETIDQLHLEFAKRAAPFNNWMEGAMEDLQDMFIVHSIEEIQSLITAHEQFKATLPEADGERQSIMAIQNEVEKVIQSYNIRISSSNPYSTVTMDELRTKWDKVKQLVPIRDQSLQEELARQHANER

Take “α-actinin 2 rod domain, spectrin repeats 1-4 (R1-R4) (from UniProt P35609 274-746) (domain or fragment)”: in data set [1], the Kd came to 4500 nM.

As for “ALP107-273 (internal region fragment of actinin-associated LIM protein, residues 107-273) (domain or fragment)”, in data set [2], the Kd was found to be 270 nM.

For the molecule “MNKPEQALLVQIHPLVTEPFMG [scrambled version of peptide 3, scrambled peptide 3 containing the same amino acids in random order, reference compound]”, the “interaction with the rod domain in SPR” value in data set [3] (comparison with peptide 3 (Fig 7D)) is on record as “did not interact”.

B1: ALP107-273: 167 residue construct of the human ALP internal region, residues 107–273; used as YFP fusion in cells (protein, UniProt Q53GG5 107-273, looked up, fragment)
chain: SEPQDGNYFEHKHNIRPKPFVIPGRSSGCSTPSGIDCGSGRSTPSSVSTVSTICPGDLKVAAKLAPNIPLEMELPGVKIVHAQFNTPMQLYSDDNIMETLQGQVSTALGETPLMSEPTASVPPESDVYRMLHDNRNEPTQPRQSGSFRVLQGMVDDGSDDRPAGTRS
modifications: YFP fusion
notes: 167 residue construct of the human ALP internal region, residues 107–273; used as YFP fusion in cells
As for B1, the Kd in data set [3] (Biacore 3000, CM5 amine coupling, R1-R4 immobilized, ALP107-273 as analyte) is 270 nM; in data set [3] (Biacore 3000, immobilized ALP107-273, soluble R1-R4), 4500 nM; in data set [4], 6.8 nM. In addition, in data set [5], the “co-localization with α-actinin” value is given as “co-localized with α-actinin in the stress fibres”. In data set [6], the “concentration to which the purified fragment could be concentrated” value is listed as “up to 30 mg/ml”.

B2: YS197-198FA: YFP-ALP107-273 point mutant, conserved tyrosine and serine of ZM motif changed to phenylalanine and alanine (protein, UniProt Q53GG5 107-273, looked up, variant Y197F S198A)
chain: B1 chain with Y91F, S92A
modifications: residues 107-273 YFP fusion
notes: YFP-ALP107-273 point mutant, conserved tyrosine and serine of ZM motif changed to phenylalanine and alanine
Take B2: in the data set with CHO cells, stress fibres, the “YFP localization at stress fibres” value is “abrogated localization”.

B3: ALP peptide 3 (residues 175-196) (peptide)
peptide: PLEMELPGVKIVHAQFNTPMQL
notes: source: synthetic peptide, bought: EZBiolab Inc
Regarding B3, in data set [7], the Kd was determined as 3000 nM.
